In patent US20250352659A1, “SELF-STABILIZING LINKER CONJUGATES” (priority 2023, published 2025):
Where two headings read alike, the source gives them in different places.

Tests used:
[1] = Conjugator-antibody conjugate maleimide hydrolysis (ring opening) kinetics by reduced LCMS; assay type: physicochemical; conditions: for half-life: buffer, pH 7.0, time for 50% of the maleimide rings to open, read-out: RO T1/2 (converted); for RO Completed Time (>95%): pH 7, time for the maleimide ring to open in more than 95% of the conjugators
Experimental: After the conjugation step, the ADC (or conjugator-antibody conjugate) was subjected to buffer exchange into ring opening buffer (pH 6.5˜9.0, PBS, borate or tris buffer) and the solution was left at 22 or 37° C. for 1˜48 h. The maleimide ring opening process was monitored via reduced LCMS. Once the conjugated maleimide hydrolysis was completed, the resulting ADCs were buffer exchanged into basic tris pH 8.0-8.5 buffer or acidic histidine-acetate pH 5.0-6.5 buffer via dialysis.
LCMS method to monitor and determine maleimide hydrolysis. LC-MS analysis was carried out under the following measurement conditions: • LC-MS system: Vanquish Flex UHPLC and Orbitrap Exploris 240 Mass Spectrometer • Column: MAbPac™ RP, 2.1*50 mm, 4 μm, 1,500 Å, Thermo Scientific™ • Column temperature: 80° C. • Mobile phase A: 0.1% formic acid (FA) aqueous solution • Mobile phase B: Acetonitrile solution containing 0.1% formic acid (FA) • Gradient program 1: 25% B-25% B (0 min-2 min), 25% B-50% B (2 min-18 min), 50% B-90% B (18 min-18.1 min), 90% B-90% B (18.1 min-20 min), 90% B-25% B (20 min-20.1 min), 25% B-25% B (20.1 min-25 min) • Gradient program 2 • Injected sample amount: 2 μg • MS parameters: Intact and denaturing MS data were acquired in HMR mode at setting of R=15k and deconvolved using the ReSpect™ algorithm and Sliding Window integration in Thermo Scientific™ BioPharma Finder™ 4.0 software.
Results for ring opening times measured by the LCMS method described above for monitoring ring hydrolysis are presented in Table 3 as RO T1/2 (h) (i.e., the time, in hours, for 50% of the maleimide rings to open).
Conjugator-antibody conjugate maleimide hydrolysis (ring opening) kinetics are presented in FIGS. 1A-1L, Table 3 (for pH 7.0 reaction conditions, hydrolysis T1/2), and Table 5. The data in Table 5 was generated by the LCMS method described above and includes the time, in hours, for the maleimide ring to open in more than 95% of the conjugators, after antibody conjugation (“RO Completed Time (>95%) (h)”). The results for conjugator-antibody conjugate 3-1 indicate that after 24 hours, about 0% of maleimide rings were open; the results for conjugator-antibody conjugate 3-3 indicate that after 24 hours, about 28% of maleimide rings were open.

[2] = Conjugator-antibody conjugate stability in pH 7.4 and 8.0 buffer with and without GSH; assay type: physicochemical; conditions: incubation 20 h;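 note: conjugate hydrolysis tracked by LC-MS analysis of reduced samples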
[3] = Conjugator-antibody conjugate stability in formulation buffer (pH 5.5 20 mM histidine buffer); assay type: physicochemical; conditions: pH 5.5, 22 °C; for MS DAR-T = 168 h / Maleimide ring opening ratio (%) at T = 168 h: incubation 168 h
Experimental: After the conjugation and hydrolysis steps described above (see “DAR8 antibody drug conjugate/conjugator-antibody conjugate preparation”), conjugator-antibody conjugates were incubated in formulation buffer (pH 5.5 20 mM histidine buffer) or glutathione (GSH) buffer (pH 7.4 or 8.0), […] Hydrolysis status was monitored via reduced LCMS. Results are presented in Table 6, Table 7, and FIGS. 2A-23B.

B7H3 [4] = biological target: T1, B7H3 (human, UniProt Q5ZPR3 29-534); experiment: cell-based or functional assay
T1 sequence (looked up): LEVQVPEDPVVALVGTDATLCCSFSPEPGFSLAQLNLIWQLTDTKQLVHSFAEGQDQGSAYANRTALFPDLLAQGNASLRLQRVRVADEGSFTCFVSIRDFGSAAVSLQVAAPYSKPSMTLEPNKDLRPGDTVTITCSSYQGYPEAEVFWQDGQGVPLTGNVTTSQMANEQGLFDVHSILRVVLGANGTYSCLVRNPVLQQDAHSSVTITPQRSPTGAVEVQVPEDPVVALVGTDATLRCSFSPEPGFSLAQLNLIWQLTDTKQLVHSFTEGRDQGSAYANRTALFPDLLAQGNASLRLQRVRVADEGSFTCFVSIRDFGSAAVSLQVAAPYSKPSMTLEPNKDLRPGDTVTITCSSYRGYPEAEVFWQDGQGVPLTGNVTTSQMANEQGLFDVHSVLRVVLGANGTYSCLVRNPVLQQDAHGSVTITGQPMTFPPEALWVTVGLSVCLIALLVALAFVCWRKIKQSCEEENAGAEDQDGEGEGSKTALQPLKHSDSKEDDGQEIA

B7H3 [5] = biological target: T1, B7H3; experiment: cell-based or functional assay; remark: listed apart in the source

## CN(C)C(=O)CN(C)C(=O)OCC(CN)N1C(=O)C=CC1=O (stereo not drawn) [3-8]
[1]
  half-life: 1.6 h
  RO Completed Time (>95%): 5 h
[1]; pH 7, time point 1 h
  MS DAR: 7.74
  RO (%) LC: 44.94%
[1]; pH 7, time point 3 h
  MS DAR: 7.88
  RO (%) HC: 96.11%
  RO (%) LC: 80.15%
  RO (%) Total: 92.12%
[1]; pH 7, time point 5 h
  MS DAR: 7.78
  RO (%) HC: 99.49%
  RO (%) LC: 92.96%
  RO (%) Total: 97.85%
[1]; pH 7, time point 7 h
  MS DAR: 7.8
  RO (%) HC: 99.47%
  RO (%) LC: 94.42%
  RO (%) Total: 98.21%
[1]; pH 7, time point 24 h
  MS DAR: 7.8
  RO (%) HC: 99.55%
  RO (%) LC: 95.48%
  RO (%) Total: 98.53%
[2]; pH 7.4, 22 °C
  MS DAR: 7.92
[2]; pH 7.4, 37 °C
  MS DAR: 7.92
[2]; pH 8.0, 22 °C
  MS DAR: 7.88
[3]
  MS DAR-T = 168 h: 7.80
  Maleimide ring opening ratio (%) at T = 168 h: 95.50%
  MS DAR-T = 0 h: 7.76

## NCC(COC(=O)NCCOCCOCCOCCOCCC(=O)O)N1C(=O)C=CC1=O (stereo not drawn) [3-4]
[1]
  half-life: 1.6 h
  RO Completed Time (>95%): 7 h
[1]; pH 7, time point 1 h
  MS DAR: 7.96
  RO (%) HC: 51.56%
  RO (%) LC: 23.19%
  RO (%) Total: 44.47%
[1]; pH 7, time point 3 h
  MS DAR: 7.98
  RO (%) HC: 88.19%
  RO (%) LC: 75.33%
  RO (%) Total: 84.98%
[1]; pH 7, time point 5 h
  MS DAR: 7.98
  RO (%) HC: 90.01%
  RO (%) LC: 87.91%
  RO (%) Total: 89.49%
[1]; pH 7, time point 7 h
  MS DAR: 7.98
  RO (%) HC: 99.07%
  RO (%) LC: 95.37%
  RO (%) Total: 98.15%
[1]; pH 7, time point 24 h
  MS DAR: 7.98
  RO (%) HC: 99.08%
  RO (%) LC: 99.66%
  RO (%) Total: 99.23%
[2]; pH 7.4, 22 °C
  MS DAR: 8.00
[2]; pH 7.4, 37 °C
  MS DAR: 8.00
[2]; pH 8.0, 22 °C
  MS DAR: 8.00
[3]
  MS DAR-T = 168 h: 8.00
  Maleimide ring opening ratio (%) at T = 168 h: 98.86%
  MS DAR-T = 0 h: 8.00

B1: ADC4-B (antibody, human IgG1, kappa, V domains shown)
VH: QVQLVQSGAEVKKPGSSVKVSCKASGYTFTNYVMHWVRQAPGQGLEWMGYINPYNDDVKYNEKFKGRVTITADESTSTAYMELSSLRSEDTAVYYCARWGYYGSPLYYFDYWGQGTLVTVSS
VL: EIVLTQSPATLSLSPGERATLSCRASSRLIYMHWYQQKPGQAPRPLIYATSNLASGIPARFSGSGSGTDFTLTISSLEPEDFAVYYCQQWNSNPPTFGQGTKVEIKR
modifications: conjugator-linker-payload on cysteine thiols after TCEP reduction (DAR8); residues not numbered; structure given only as a drawing
B7H3 [4]
  EC50 (nM), ADC direct killing, Capan-1 (Low), 3D: 0.5 nM
  EC50 (nM), ADC direct killing, NCI-H1650 (High), 3D: 3.9 nM
  Emax (%), ADC direct killing, Capan-1 (Low), 3D: 84.9%
  Emax (%), ADC direct killing, NCI-H1650 (High), 3D: 75.3%
B7H3 [5]
  EC50 (nM), ADC direct killing, Capan-1 (Low), 3D: 1.1 nM
  EC50 (nM), ADC direct killing, NCI-H1650 (High), 3D: 4.5 nM
  Emax (%), ADC direct killing, Capan-1 (Low), 3D: 74.3%
  Emax (%), ADC direct killing, NCI-H1650 (High), 3D: 66.5%

B2: ADC4-14 (antibody, human IgG1, kappa, V domains shown)
VH: B1 VH
VL: B1 VL
modifications: conjugator-linker-payload on cysteine thiols after TCEP reduction (DAR8), maleimide hydrolysed; residues not numbered; structure given only as a drawing
B7H3 [5]
  EC50 (nM), ADC direct killing, Capan-1 (Low), 3D: 0.4 nM
  EC50 (nM), ADC direct killing, NCI-H1650 (High), 3D: 1.3 nM
  Emax (%), ADC direct killing, Capan-1 (Low), 3D: 61.3%
  Emax (%), ADC direct killing, NCI-H1650 (High), 3D: 81.6%

B3: ADC4-10 (antibody, human IgG1, kappa, V domains shown)
VH: B1 VH
VL: B1 VL
modifications: conjugator-linker-payload on cysteine thiols after TCEP reduction (DAR8), maleimide hydrolysed; residues not numbered; structure given only as a drawing
B7H3 [4]
  EC50 (nM), ADC direct killing, Capan-1 (Low), 3D: 0.6 nM
  EC50 (nM), ADC direct killing, NCI-H1650 (High), 3D: 1.7 nM
  Emax (%), ADC direct killing, Capan-1 (Low), 3D: 68.4%
  Emax (%), ADC direct killing, NCI-H1650 (High), 3D: 80%

B4: ADC4-11 (antibody, human IgG1, kappa, V domains shown)
VH: B1 VH
VL: B1 VL
modifications: conjugator-linker-payload on cysteine thiols after TCEP reduction (DAR8), maleimide hydrolysed; residues not numbered; structure given only as a drawing
B7H3 [5]
  EC50 (nM), ADC direct killing, Capan-1 (Low), 3D: 1 nM
  EC50 (nM), ADC direct killing, NCI-H1650 (High), 3D: 2.1 nM
  Emax (%), ADC direct killing, Capan-1 (Low), 3D: 62.4%
  Emax (%), ADC direct killing, NCI-H1650 (High), 3D: 85.6%

B5: ADC4-16 (antibody, human IgG1, kappa, V domains shown)
VH: B1 VH
VL: B1 VL
modifications: conjugator-linker-payload on cysteine thiols after TCEP reduction (DAR8), maleimide hydrolysed; residues not numbered; structure given only as a drawing
B7H3 [5]
  EC50 (nM), ADC direct killing, Capan-1 (Low), 3D: 0.6 nM
  EC50 (nM), ADC direct killing, NCI-H1650 (High), 3D: 1.5 nM
  Emax (%), ADC direct killing, Capan-1 (Low), 3D: 62.2%
  Emax (%), ADC direct killing, NCI-H1650 (High), 3D: 76.4%

B6: ADC4-9 (antibody, human IgG1, kappa, V domains shown)
VH: B1 VH
VL: B1 VL
modifications: conjugator-linker-payload on cysteine thiols after TCEP reduction (DAR8), maleimide hydrolysed; residues not numbered; structure given only as a drawing
B7H3 [4]
  EC50 (nM), ADC direct killing, Capan-1 (Low), 3D: 0.8 nM
  EC50 (nM), ADC direct killing, NCI-H1650 (High), 3D: 2.8 nM
  Emax (%), ADC direct killing, Capan-1 (Low), 3D: 78.8%
  Emax (%), ADC direct killing, NCI-H1650 (High), 3D: 81.4%

B7: ADC4-13 (antibody, human IgG1, kappa, V domains shown)
VH: B1 VH
VL: B1 VL
modifications: conjugator-linker-payload on cysteine thiols after TCEP reduction (DAR8), maleimide hydrolysed; residues not numbered; structure given only as a drawing
B7H3 [5]
  EC50 (nM), ADC direct killing, Capan-1 (Low), 3D: 0.5 nM
  EC50 (nM), ADC direct killing, NCI-H1650 (High), 3D: 1.6 nM
  Emax (%), ADC direct killing, Capan-1 (Low), 3D: 58.5%
  Emax (%), ADC direct killing, NCI-H1650 (High), 3D: 79.3%

B8: ADC4-12 (antibody, human IgG1, kappa, V domains shown)
VH: B1 VH
VL: B1 VL
modifications: conjugator-linker-payload on cysteine thiols after TCEP reduction (DAR8), maleimide hydrolysed; residues not numbered; structure given only as a drawing
B7H3 [5]
  EC50 (nM), ADC direct killing, NCI-H1650 (High), 3D: 2.3 nM
  Emax (%), ADC direct killing, Capan-1 (Low), 3D: 61.9%
  Emax (%), ADC direct killing, NCI-H1650 (High), 3D: 83.2%

B9: ADC4-8 (antibody, human IgG1, kappa, V domains shown)
VH: B1 VH
VL: B1 VL
modifications: conjugator-linker-payload on cysteine thiols after TCEP reduction (DAR8), maleimide hydrolysed; residues not numbered; structure given only as a drawing
B7H3 [4]
  EC50 (nM), ADC direct killing, Capan-1 (Low), 3D: 1 nM
  EC50 (nM), ADC direct killing, NCI-H1650 (High), 3D: 2.9 nM
  Emax (%), ADC direct killing, Capan-1 (Low), 3D: 66.6%
  Emax (%), ADC direct killing, NCI-H1650 (High), 3D: 79.5%
